In assay [1] the target is HLA-B*46:01. Description: IEDB peptide-MHC binding, purified MHC/competitive/fluorescence; filed as Kd, often an IC50 or EC50 that approximates it; ≥ and ≤ were set here for values at or beyond the usual limits of such assays.
Another assay deals with HLA-A*69:01. Description: IEDB peptide-MHC binding, purified MHC/direct/fluorescence; filed as Kd, often an IC50 or EC50 that approximates it; ≥ and ≤ were set here for values at or beyond the usual limits of such assays.
Assay [2] concerns the target HLA-B*57:01. Described as above.
In assay [3] the target is HLA-B*44:02. The description is as above.
Another assay concerns the target HLA-B*07:02. The description is as above.
Another assay addresses HLA-A*31:01. Described as above.
Assay [4] deals with HLA-A*01:01. The description is as above.
The target of assay [5] is HLA-B*18:01. The assay is described as above.
Assay [6] concerns the target HLA-A*02:01. The description is as above.
The target of a further assay is HLA-A*11:01. The assay is described as above.
For another assay, the target named is HLA-B*58:01. The assay is described as above.
The next assay concerns the target HLA-B*27:05. The description is as above.
The target of a further assay is HLA-A*03:01. The assay is described as above.
The target of assay [7] is HLA-B*46:01. Described as above.
Assay [8] has as its target HLA-B*44:02. The experiment in a line: IEDB peptide-MHC binding, purified MHC/competitive/radioactivity; filed as Kd, often an IC50 or EC50 that approximates it; ≥ and ≤ were set here for values at or beyond the usual limits of such assays. The conditions noted are these: source organism: SARS coronavirus Tor2.
Assay [9] deals with HLA-B*40:01. The assay is described as above. As to conditions: source organism: SARS coronavirus Tor2.
The target in a further assay is HLA-B*45:01. Described as above. As to conditions: source organism: SARS coronavirus Tor2.
In a further assay the target is HLA-B*40:02. The description is as above. As to conditions: source organism: SARS coronavirus Tor2.
Assay [10] addresses HLA-B*18:01. Described as above. As to conditions: source organism: SARS coronavirus Tor2.
The target in the next assay is HLA-B*44:03. The assay is described as above. The conditions noted are these: source organism: SARS coronavirus Tor2.
In assay [11] the target is HLA-A*26:01. Description: IEDB peptide-MHC binding, purified MHC/direct/fluorescence; filed as Kd, often an IC50 or EC50 that approximates it; ≥ and ≤ were set here for values at or beyond the usual limits of such assays.
Assay [12] has as its target HLA-B*40:01. The assay is described as above.
For the next assay, the target named is HLA-B*48:01. The assay is described as above.
Assay [13] addresses HLA-B*15:01. The assay is described as above.
Assay [14] deals with HLA-B*15:01. Description: IEDB peptide-MHC binding, purified MHC/competitive/fluorescence; filed as Kd, often an IC50 or EC50 that approximates it; ≥ and ≤ were set here for values at or beyond the usual limits of such assays.
The target in assay [15] is HLA-B*57:01. Description: IEDB peptide-MHC binding, purified MHC/competitive/radioactivity; filed as Kd, often an IC50 or EC50 that approximates it; ≥ and ≤ were set here for values at or beyond the usual limits of such assays.
The target of assay [16] is HLA-A*02:01. The experiment in a line: IEDB peptide-MHC binding, purified MHC/competitive/fluorescence; filed as Kd, often an IC50 or EC50 that approximates it; ≥ and ≤ were set here for values at or beyond the usual limits of such assays. The conditions noted are these: source organism: Salmonella enterica subsp. enterica serovar Typhi.
The target of the next assay is HLA-B*53:01. Description: IEDB peptide-MHC binding, purified MHC/competitive/radioactivity; filed as Kd, often an IC50 or EC50 that approximates it; ≥ and ≤ were set here for values at or beyond the usual limits of such assays. As to conditions: source organism: Dengue virus 4 Philippines/H241/1956.
Assay [17] concerns the target HLA-A*01:01. Described as above.
In assay [18] the target is HLA-A*26:01. Described as above. As to conditions: source organism: Dengue virus 2 Jamaica/1409/1983.
Assay [19] concerns the target HLA-A*26:01. Description: IEDB peptide-MHC binding, purified MHC/competitive/fluorescence; filed as Kd, often an IC50 or EC50 that approximates it; ≥ and ≤ were set here for values at or beyond the usual limits of such assays.
Another assay deals with HLA-A*24:02. The experiment in a line: IEDB peptide-MHC binding, purified MHC/competitive/fluorescence; ≥ and ≤ were set here for values at or beyond the usual limits of such assays.
For assay [20], the target named is HLA-A*02:01. Described as above.
In another assay the target is HLA-B*08:01. The experiment in a line: IEDB peptide-MHC binding, purified MHC/direct/fluorescence; filed as Kd, often an IC50 or EC50 that approximates it; ≥ and ≤ were set here for values at or beyond the usual limits of such assays. As to conditions: source organism: Mammarenavirus brazilense.
The mark [21] stands for this setting: source organism: Yellow fever virus.
Setting [22] is: source organism: West Nile virus.
[23] abbreviates: source organism: Bacillus cereus G9241.
Where [24] appears, read: source organism: Dengue virus 4 Philippines/H241/1956.
[25] abbreviates: source organism: Dengue virus 2 Jamaica/1409/1983.
Setting [26] is: source organism: Salmonella enterica.
The mark [27] stands for this setting: source organism: Sudan ebolavirus.
Setting [28] is: source organism: Bacillus anthracis str. A0488.
[29] abbreviates: source organism: Dengue virus 3 Martinique/1243/1999.
Where [30] appears, read: source organism: Mammarenavirus brazilense.

Where only a bound is given, the exact number is not on record here.

Broadly, the Kd is the concentration at which binding is half-saturated. IAFCNWAFV: the Kd was 4.36 µM with HLA-B*46:01 [1] (source organism: Vibrio cholerae 2740-80) and 0.06 µM in the assay with HLA-A*69:01 (source organism: Vibrio cholerae).

As for SSARYDVAL, the dissociation constant (Kd) with HLA-B*57:01 [2] (setting [21]), with HLA-B*44:02 [3] (setting [21]), with HLA-B*07:02 (source organism: Yellow fever virus 17D), with HLA-A*31:01 (setting [21]), in the assay with HLA-A*01:01 [4] (setting [21]) and in the assay with HLA-B*18:01 [5] (setting [21]) was not below 20 µM throughout. For the same sequence, the dissociation constant (Kd) with HLA-A*02:01 [6] (setting [21]), in the assay with HLA-A*11:01 (setting [21]), with HLA-B*58:01 (setting [21]), with HLA-B*27:05 (setting [21]), with HLA-A*03:01 (setting [21]) and in the assay with HLA-B*46:01 [7] (setting [21]) was not below 20 µM throughout.

On to KETLYRIDG, for which the equilibrium dissociation constant (Kd) in the assay with HLA-B*44:02 [8] is not below 57.7 µM; in the assay with HLA-B*40:01 [9], not below 46 µM; with HLA-B*45:01 it was not below 24 µM; with HLA-B*40:02, not below 45.6 µM; in the assay with HLA-B*18:01 [10], not below 77.5 µM; with HLA-B*44:03, not below 30.6 µM.

On to NTARLMAGA, for which, in the assay with HLA-A*26:01 [11] (source organism: Mycobacterium tuberculosis), the Kd was not below 20 µM.

With TRAVGKPLL, the dissociation constant (Kd) with HLA-B*57:01 [2] (setting [22]), with HLA-B*44:02 [3] (setting [22]), with HLA-B*07:02 (setting [22]), with HLA-B*40:01 [12] (setting [22]), in the assay with HLA-B*48:01 (setting [22]) and in the assay with HLA-A*69:01 (setting [22]) was not below 20 µM throughout. The Kd in the assay with HLA-B*18:01 [5] (setting [22]), with HLA-A*02:01 [6] (setting [22]), with HLA-B*58:01 (setting [22]), with HLA-B*27:05 (setting [22]), with HLA-B*15:01 [13] (setting [22]) and in the assay with HLA-A*03:01 (setting [22]) was not below 20 µM throughout. The sequence also came in with a Kd with HLA-B*46:01 [7] (setting [22]) not below 20 µM.

Consider EEHFVETVSL, for which the Kd with HLA-B*44:02 [8] stood at 0.44 µM; with HLA-B*40:01 [9] it was 0.0092 µM; with HLA-B*45:01, 0.116 µM; with HLA-B*40:02 it was 0.0843 µM; with HLA-B*18:01 [10] it was 1.04 µM; in the assay with HLA-B*44:03, 0.143 µM.

In the case of KELSPRWYF, the Kd was found to be 0.0634 µM with HLA-B*44:02 [8]; 0.889 µM with HLA-B*40:01 [9]; 6.01 µM with HLA-B*45:01; 0.0073 µM with HLA-B*40:02; 1.88 µM with HLA-B*18:01 [10]; 0.0528 µM with HLA-B*44:03.

In the assay with HLA-B*15:01 [14] (setting [23]), LTVVPLMAF displayed a Kd of 0.147 µM.

As to RFSTSLLFLN, the Kd with HLA-B*57:01 [15] (setting [24]) came out at 1.09 µM.

In turn, ISRDIMDAY had a Kd with HLA-B*46:01 [1] (setting [23]) of 0.0416 µM.

With KQSSFLSSL, the results for the Kd in the assay with HLA-A*02:01 [16] and with HLA-B*15:01 [14] (source organism: Salmonella enterica subsp. enterica serovar Typhi) were 0.0381 µM and 0.0941 µM, respectively.

As for EAVNDSRFW, the Kd was found to be 1.26 µM with HLA-B*57:01 [15] (setting [24]) and 0.0132 µM in the assay with HLA-B*53:01.

Turning to AEFNEDGLL, in the assay with HLA-B*48:01 (source organism: Listeria monocytogenes serotype 4b str. H7858), the dissociation constant (Kd) was not below 20 µM.

In the case of ETSWHYDQDH, the dissociation constant Kd was 2.31 µM in the assay with HLA-B*57:01 [15] (setting [25]), not below 70.4 µM in the assay with HLA-A*01:01 [17] (setting [25]) and not below 40.9 µM with HLA-A*26:01 [18].

In the case of PASIAARGYI, the equilibrium dissociation constant (Kd) with HLA-B*57:01 [15] (setting [25]) stood at 0.365 µM.

In the assay with HLA-A*26:01 [19] (source organism: Influenza A virus (A/Memphis/1/1978(H1N1))), SIIGILHLI had a Kd of 13 µM.

Consider YPVWLTKHL, for which the values for the dissociation constant (Kd) in the assay with HLA-B*40:01 [12] (setting [26]) and with HLA-B*18:01 [5] (setting [26]) were 2.93 µM and 2.15 µM, respectively.

One may read the IC50 as the point on the concentration scale where inhibition reaches its midpoint. As to TTQALQLFL, the IC50 with HLA-A*24:02 (setting [27]) turned out to be 6.61 µM; in the assay with HLA-A*02:01 [20] (setting [27]) it was 10.6 µM.

For ESFDLAGLF, the Kd in the assay with HLA-A*26:01 [11] (source organism: Mammarenavirus juninense) stood at 0.0013 µM.

RTSKKRSWPL: in the assay with HLA-B*57:01 [15] (setting [25]), the dissociation constant (Kd) amounted to 0.69 µM.

HIVYAVPLM: the Kd with HLA-A*26:01 [19] (setting [28]) was 0.0082 µM.

In the case of FSAWISHRP, the figures for the half-inhibitory concentration (IC50) with HLA-A*24:02 (source organism: Variola virus) and with HLA-A*02:01 [20] (source organism: Variola virus) were 0.517 µM and 38.1 µM, respectively.

For STSQETWNRQ, the Kd with HLA-B*57:01 [15] (source organism: Dengue virus 1 Brazil/97-11/1997) turned out to be 0.943 µM.

VLNGAPYSY: the Kd in the assay with HLA-B*15:01 [14] (setting [28]) came to 0.0536 µM.

SSSMRKTDWL: the Kd in the assay with HLA-B*57:01 [15] (setting [29]) is 3.14 µM; with HLA-A*01:01 [17] (setting [29]), not below 49.7 µM.

Consider GMNEVTKAL, for which the dissociation constant (Kd) with HLA-B*48:01 (source organism: Giardia lamblia ATCC 50803) turned out to be 0.359 µM.

EFKSRFFVM: the equilibrium dissociation constant (Kd) with HLA-B*57:01 [2] (setting [30]) was not below 20 µM; in the assay with HLA-B*44:02 [3] (setting [30]), not below 20 µM; with HLA-B*08:01, 0.364 µM; with HLA-B*07:02 (setting [30]) it was not below 20 µM; in the assay with HLA-B*48:01 (setting [30]), not below 20 µM; with HLA-A*69:01 (setting [30]) it was not below 20 µM. Besides, the Kd with HLA-A*31:01 (setting [30]), in the assay with HLA-A*01:01 [4] (setting [30]), with HLA-A*02:01 [6] (setting [30]), with HLA-A*11:01 (setting [30]), in the assay with HLA-B*58:01 (setting [30]) and with HLA-B*27:05 (setting [30]) was not below 20 µM in each case. Further, the Kd with HLA-B*15:01 [13] (setting [30]), with HLA-A*03:01 (setting [30]) and with HLA-B*46:01 [7] (setting [30]) was not below 20 µM in each case.

Regarding KDYMSLSEQL, the Kd in the assay with HLA-B*44:02 [8] is not below 25.6 µM; with HLA-B*40:01 [9], 6.19 µM; in the assay with HLA-B*40:02 it was 5.78 µM; with HLA-B*18:01 [10], not below 70.5 µM; with HLA-B*44:03, not below 29.6 µM.

(Values after the Immune Epitope Database (IEDB).)
